Measurements as given in doi:10.1101/2025.02.24.640013, “Exploration of the influence of environmental changes on the conformational and amyloidogenic landscapes of the zinc finger protein DPF3a by combining biophysical and molecular dynamics approaches” (bioRxiv, 2025).

Biological target: the molecule itself
Assay: negative-stain TEM + far-UV CD + autofluorescence of amyloid fibril formation; tag-free DPF3a alone, ~4.5 uM (0.18 mg/mL), incubated at ~25 °C for seven days in 50 mM Tris-HCl pH 8, 150 mM NaCl (reference); also at pH 12 in 150 mM NaCl and at pH 8 in 300 and 500 mM NaCl, where fibrils formed later, shorter and in lower number

B1: double PHD fingers 3 (DPF3) protein, isoform DPF3a, full-length (natural protein, human, UniProt Q92784-2 1-357, looked up)
chain: MATVIHNPLKALGDQFYKEAIEHCRSYNSRLCAERSVRLPFLDSQTGVAQNNCYIWMEKRHRGPGLAPGQLYTYPARCWRKKRRLHPPEDPKLRLLEIKPEVELPLKKDGFTSESTTLEALLRGEGVEKKVDAREEESIQEIQRVLENDENVEEGNEEEDLEEDIPKRKNRTRGRARGSAGGRRRHDAASQEDHDKPYVCDICGKRYKNRPGLSYHYAHTHLASEEGDEAQDQETRSPPNHRNENHRPQKGPDGTVIPNNYCDFCLGGSNMNKKSGRPEELVSCADCGRSAHLGGEGRKEKEAAAAARTTEDLFGSTSESDTSTFHGFDEDDLEEPRSCRGRRSGRGSPTADKKGSC
notes: Human DPF3, isoform DPF3a, full length; molecular mass 40244 Da; Metalloprotein with a C2H2 zinc finger; also called full-length DPF3a; source: E. coli BL21 Rosetta (DE3), purified (GSTrap FF, on-column TEV cleavage of the GST tag); not shown: GST, N-terminal, cleaved
Does B1 bind?
Result: binds
